According to patent publication US20230340090A1:

T1: TP-24 peptide (human)
T1 sequence (peptide, biotinylated): REFFSQYGDVMDVFI

T2: TP-25 peptide (human)
T2 sequence (peptide, biotinylated): VMDVFIPKPFRAFAF


Assays:
TP-24 peptide (human) = target: T1, TP-24 peptide (human); test: indirect ELISA, biotinylated 15-mer on streptavidin plate
TP-25 peptide (human) = target: T2, TP-25 peptide (human); test: as above

OD (O.D. (405 nm)) (TP-24 peptide (human)) | OD (O.D. (405 nm)) (TP-25 peptide (human)) | Binder
4 | 0.9 | ACI-7062-404D6-Ab2 (antibody, IgG3, V domains shown) VH: QVTLKESGPGILQPSQTLSLTCSFSGFSLSTYGIGVGWIRQPSGKGLEWLAHIWWNDYKYYNTALKSRLTISKDTSNNRVFLKIASVDTADTATYYCARVYGNLYYFDYWGQGTTLTVSS VL: DVLMTQTPLSLPVSLGDQASISCRSSQSIVHGSGNTYLEWYLQKPGQSPKLLIYKVSNRFSGVPDRFSGSGSGTDFTLRISRVEAEDLGVYYCFQGSHVPTFGAGTKLELKR
2.9 | 0.9 | ACI-7062-416A11-Ab1 (antibody, IgG2a, V domains shown) VH: QVTLKESGPGILQSSQTLSLTCSFSGFSLSTYGIGVGWIRQPSGKGLEWLAHIWWNDNKYYNTALKSRLTISKDTSNNQVFLKIASVDTADAATYYCARVYGNLYYFGYWGQGTTLTVSS VL: DVLMTQTPLSLPVSLGDRASISCRSSQSIVHSSGNTYLEWYLQKPGQSPKLLIYKVSNRFSGVPDRFSGSGSGTDFTLKISRVEAEDLGVYYCFQGSRVPTFGAGTKLELKR
3.8 | 1.2 | ACI-7062-415C4-Ab1 (antibody, IgG1, V domains shown) VH: QVTLKESGPGILQPSQTLSLTCSFSGFSLSTYGIGVGWIRQPSGKGLEWLAHIWWNDNKYYKTALKSRLTISKDTSNNQVFLKIASVDTADSATYYCARVYGNLYYFGYWGQGTTLTVSS VL: DVLMTQTPLSLPVSLGDQASISCRSSQSIVHSTGNTYLEWYLQKPGQSPKLLIYKVSNRFSGVPDRFSGSGSGTDFTLKISRVEAEDLGVYYCFQGSRVPTFGAGTKLELKR
3.8 | 0.8 | ACI-7062-410H3-Ab1 (antibody, IgG1, V domains shown) VH: DVQLVESGGGLVQPGGSRRLSCAASGFTFSSFGMHWVRQAPEKGLEWVAYIRSGSDIIYYADSVKGRFTISRDNPENTLFLQMTSLRSEDTAMYYCARSGTTVPFDYWGQGTSLTVSS VL: DIVMTQSPSSLAMSVGQKVTMSCKSSQSLLNSGNQKNYLAWYQQKPGQSPELLLYFASTRASGVPDRFIGSGSGTDFTLTISSVQAEDLADYFCQQHYSIPLTFGAGTKLELKR
4 | 1.4 | ACI-7062-412A7-Ab1 (antibody, IgG2b, V domains shown) VH: DVQLVESGGGLVQPGGSRRLSCAASGFTFSSFGMHWVRQAPEKGLEWVAYIRSGSDIIYYADSVKGRFTISRDNPENTLFLQMTSLRSEDTAMYYCARSGTTVPFDYWGQGTSLTVSS VL: DIVMTQSPSSLAMSVGQKVTMSCKSSQSLLNSGNQKNYLAWYQQKPGQSPELLLYFASTRASGVPDRFIGSGSGTDFTLTISSVQAEDLADYFCQQHYSIPLTFGAGTKLELKR
3.2 | 1.2 | ACI-7062-412E12-Ab1 (antibody, IgG1, V domains shown) VH: DVQLVESGGGLVQPGGSRRLSCAASGFTFSRFGMHWVRQAPEKGLEWVAYIRSGSDIIYYADSVKGRFTISRDNPENTLFLQMTSLRSEDTAMYYCARSGTTVPFDYWGQGTSLTVSS VL: DIVMTQSPSSLAMSVGQKVTMSCKSSQSLLNSGDQKNYLAWYQQKPGQSPELLLYFASTRASGVPDRFIGSGSGTDFSLTISSVQAEDLADYFCQQHYSIPLTFGAGTKLELKR
2.5 | 1 | ACI-7062-401A2-Ab2 (antibody, IgG1, V domains shown) VH: DVQLVESGGGLVQPGGSRRLSCAASGFTFSRFGMHWVRQAPEKGLEWVAYIRSGSDIIYYADSVKGRFTISRDNPENTLFLQMTSLRSEDTAMYYCARSGTTVPFDYWGQGTSLTVSS VL: DIVMTQSPSSLAMSVGQKVTMSCKSSQSLLNSGDQKNYLAWYQQKPGQSPELLLYFASTRASGVPDRFIGSGSGTDFSLTISSVQAEDLADYFCQQHYSIPLTFGAGTKLELKR
